Measurements published in patent publication US20220064302A1 (GIGAGEN, published 2022).
Residue numbers refer to the chain shown, from its start.

B1: A27 (antibody, V domains shown)
VH: QVQLVQSGAELVRPGTSVKLSCRASGYTFTTYWMHWVKQRPGQGLEWIGVIDPSDSYTYYNQKFKGKATLTVDTSSSTAYMQLSSLTSEDSAVYFCARNWDYWGQGTTLTVSS
VL: AIQLTQSPSSLSASVGDRVTITCRASQGISSALAWYQQKPGKAPKLLIYDASSLESGVPSRFSGSGSGTDFTLTISSLQPEDFATYYCQQFNDYALTFGGGTKVEIK
notes: Tested as full-length mAb expressed in CHO cells; also called antibody 27; L27H27
B2: A5 (antibody, V domains shown)
VH: QVQLVESGGGVVQPGRSLRLSCAASGFTFSNYGTHWVRQAPGKGLEWVAVIWYDGSNKYYADSVKGRFTISRDNSKNTLYLQMNSLRAEDTAVYYCARDRIYCSSTRCIGFGYYYYGMDVWGQGTTVTVSS
VL: AIQLTQSPSSLSASVGDRVTITCRASQGISSALAWYQQKPGKAPKLLIYDASSLESGVPSRFSGSGSGTDFTLTISSLQPEDFATYYCQQFNNYPWTFGQGTKVEIKR
notes: Tested as full-length mAb expressed in CHO cells; also called antibody A5; L5H5
B3: A10 (antibody, V domains shown)
VH: QVQLVQSGAEVKKPGASVKVSCKASGYTFAIYGISWVRQAPGQGLEWMGWISAYSDNSNYAQKLQGRVTMTTDTSTSTAYMELRSLRSDDTAVYYCVRDGSHGDYYYGMDVWGQGTTVTVSS
VL: DIQMTQSPSSLSASVGDRVTITCRASQGISSWLAWYQQKPEKAPKSLIYAASSLQSGVPSRFSGSGSGTDFTLTISSLQPEDFATYYCQQYNSYPYTFGQGTKLEIK
notes: Tested as full-length mAb expressed in CHO cells; also called antibody A10; L10H10
B4: A4 (antibody, V domains shown)
VH: B3 VH with I31T, I34V, S58I, K63N, M70I, V97A
VL: DIQMTQSPSSLSASVGDRVTITCRASQGISSWLAWYQQKPEKAPKSLIYAASSLQSGVPSRFSGSGSGTDFTLTISSLQPEDFATYYCQQYNSYPYTFGQGTKLEIKR
notes: Tested as full-length mAb expressed in CHO cells; also called antibody A4; L4H4
B5: A11 (antibody, V domains shown)
VH: B3 VH with K23R, A30T, I31N, A53V, S58T, N59H, A61P, V97A, G108V, V111L
VL: B3 VL with R18S, V19I, Y91F
notes: Tested as full-length mAb expressed in CHO cells; also called antibody A11; L11H11
B6: A1 (antibody, V domains shown)
VH: QVQLVESGGGVVQPGRSLRLSCAASGFTFSNYGMHWVRQAPGKGLEWVAVIWYDGSNKYYTDSVKGRFTISRDNSKNTLYLQMNSLRAEDTAVYYCAGGGNYYGDYWGQGTLVTVSS
VL: DIQMTQSPSSLSASVGDRVTITCRASQGIRNDLGWYQQKPGKAPKRLIYVASSLQSGVPSRFSGSGSGTEFTLTISSLQPEDFATYYCLQHNSYPLTFGGGTKVEIKR
notes: Tested as full-length mAb expressed in CHO cells; also called antibody A1; L1H1
B7: A6 (antibody, V domains shown)
VH: B6 VH with N31S, T61A, Y103W, Y106F
VL: B6 VL with I48L, V50A, S53N, S56L, G68E, L96W, G100Q
notes: Tested as full-length mAb expressed in CHO cells; also called antibody A6; L6H6
B8: A3 (antibody, V domains shown)
VH: B6 VH with V11E, N31D, T61A, N101S, Y103W
VL: B6 VL with D32E, V50A, N92Y, S93I, L96W, G100Q
notes: Tested as full-length mAb expressed in CHO cells; also called antibody A3; L3H3
B9: A9 (antibody, V domains shown)
VH: QVQLVESGGGVVQPGRSLRLSCAASGFTFSNYGMHWVRQAPGKGLEWVAVIWYDGTNKFYADSVKGRFTISRDNSKNTLYLQMNSLRAEDTAVYYCATNSDDYWGQGTLVTVSS
VL: AIQMTQSPSSLSASVGDRVTITCRASQDIRNDLGWYQQKPGKAPKLLIYAASLLRSGVPSRFSGSGSGTDFTLTISSLQPEDFATYYCLQDNNYPRTFGQGTKVEIK
notes: Tested as full-length mAb expressed in CHO cells; also called antibody A9; L9H9
B10: A28 (antibody, V domains shown)
VH: QVQLVESGGGLVKPGGSLKLSCAASGFTFSDYGMHWVRQAPEKGLEWVAYISSGSFAIYYADTVRGRFTISRDSAKNTLFLQMTSLRSEDTAMYYCARRGPYPYYYSMDYWGQGTSVTVSS
VL: B9 VL with D28G, R30S, N31S, D32A, G34A, L53T, R55Q, N92Y, R96W
notes: Tested as full-length mAb expressed in CHO cells; also called antibody 28; L28H28
B11: A7 (antibody, V domains shown)
VH: QVQLVQSGAEVKKPGASVKVSCKASGYTFTSYGINWVRQAPGQGLEWMGWISAYNGNRNYAQNLQGRVTMTSDTSTNTAYMELRSLRSYDTAVYYCARDHYDILTGYYKGGFDYWGQGTLVTVSS
VL: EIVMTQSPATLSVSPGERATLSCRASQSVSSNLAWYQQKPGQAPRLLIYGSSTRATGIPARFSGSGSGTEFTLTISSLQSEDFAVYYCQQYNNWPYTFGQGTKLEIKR
notes: Tested as full-length mAb expressed in CHO cells; also called antibody A7; L7H7
B12: A8 (antibody, V domains shown)
VH: QVQLVESGGGVVQPGRSLRLSCAASGFTFSSYGMHWVRQAPGKGLEWVAVIWYDGSIKYYADSVKGRFTISRDNSKNTLYLQMNSLRAEDTAVYYCANDILTGSFDYWGQGTLVTVSS
VL: EIVLTQSPATLSLSPGERATLSCRASQSVSSYLAWYQQKPGQAPRLLIYDASNRATGIPARFSGSGSGTDFTLTISSLEPEDFAVYYCQQRNTWPYTFGQGTKLEIKR
notes: Tested as full-length mAb expressed in CHO cells; also called antibody A8; L8H8
B13: A2 (antibody, V domains shown)
VH: QVQLVESGGGVVQPGRSLRLSCAASGFTFSSYGMHWVRQAPGKGLEWVALISYDGSNKYYADSVKGRFTISRDNSKNTLYLQMNSLRAEDTAVYYCARGGYFDPYGDYYYGMDVWGQGTTVTVSS
VL: B6 VL with G28A, Y36F, V50A, S60L, Y94F, L96W, G100Q
notes: Tested as full-length mAb expressed in CHO cells; also called antibody A2; L2H2
B14: Pembrolizumab (antibody, V domains shown)
VH: QVQLVQSGVEVKKPGASVKVSCKASGYTFTNYYMYWVRQAPGQGLEWMGGINPSNGGTNFNEKFKNRVTLTTDSSTTTAYMELKSLQFDDTAVYYCARRDYRFDMGFDYWGQGTTVTVSS
VL: EIVLTQSPATLSLSPGERATLSCRASKGVSTSGYSYLHWYQQKPGQAPRLLIYLASYLESGVPARFSGSGSGTDFTLTISSLEPEDFAVYYCQHSRDLPLTFGGGTKVEIKR

These binders were tested against PD-1 expressed on cells (human, UniProt Q15116 25-288) (assay: cell-based or functional assay).
Chain of PD-1 expressed on cells (Q15116 25-288 limits assumed): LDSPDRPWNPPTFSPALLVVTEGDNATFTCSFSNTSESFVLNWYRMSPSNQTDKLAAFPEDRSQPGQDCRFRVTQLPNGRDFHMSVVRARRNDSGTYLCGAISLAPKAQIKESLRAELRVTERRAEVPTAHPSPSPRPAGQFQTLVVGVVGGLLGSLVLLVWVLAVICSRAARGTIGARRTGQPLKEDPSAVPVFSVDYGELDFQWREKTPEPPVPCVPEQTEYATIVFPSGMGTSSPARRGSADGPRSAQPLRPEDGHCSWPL

Row | PD-1/PD-L1 blockage (IC50, µg/ml) | Binder
1 | 0.528 µg/mL | B1
2 | 1.31 µg/mL | B2
3 | 1.64 µg/mL | B3
4 | 2.12 µg/mL | B4
5 | 1.31 µg/mL | B5
6 | 2.39 µg/mL | B6
7 | 1.12 µg/mL | B7
8 | 1.34 µg/mL | B8
9 | 0.461 µg/mL | B9
10 | 0.542 µg/mL | B10

Each binder was assayed against T1, human PD-1 (soluble PD-1 protein, R&D Systems) (human, UniProt Q15116 25-170, limits assumed) (assay: BLI, mAb on AHC biosensor, PD-1 as analyte).
T1 construct: the kinetics paragraphs say only 'PD-1' / 'antigen'; also called hPD-1; soluble PD-1 immunogen
Protocol: (§1) The binding specificity and affinity of each full-length antibody towards PD-1 were determined using BLI and/or SPR. […] Anti-cyno PD-1 affinity was measured using BLI.
(§2) For BLI, antibodies were loaded onto an Anti-Human IgG Fc (AHC) biosensor using the Octet Red96 system (ForteBio). Loaded biosensors were dipped into antigen dilutions beginning at 300 nM, with 6 serial dilutions at 1:3. Kinetic analysis was performed using a 1:1 binding model and global fitting.

T1 sequence (Q15116 25-170 limits assumed): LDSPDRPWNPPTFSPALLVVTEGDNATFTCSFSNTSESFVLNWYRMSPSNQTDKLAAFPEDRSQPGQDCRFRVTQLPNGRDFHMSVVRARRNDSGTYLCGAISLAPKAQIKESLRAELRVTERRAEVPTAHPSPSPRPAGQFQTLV

Row | Kd | Binder
11 | 13.8 nM | B1
12 | 23.8 nM | B10

These binders were tested against T1, human PD-1 (soluble PD-1 protein, R&D …) (assay: array SPR (Carterra), mAb captured, PD-1 as analyte).
Protocol: (§3) For SPR, a moderate density (»1,000 Response Units) of an antihuman IgG-Fc reagent (Southern Biotech 2047-01) was amine-coupled to a Xantec CMD-50M chip (50 nm carboxymethyldextran medium density of functional groups) activated with 133 mM EDC (Sigma) and 33.3 mM S-NHS (ThermoFisher) in 100 mM MES pH 5.5. Then, goat anti-Human IgG Fc (Southern Biotech 2047-01) was coupled for 10 minutes at […] in 10 mM Sodim Acetate pH 4.5 (Carterra Inc.). The surface was then deactivated with 1 M ethanolamine pH 8.5 (Carterra Inc.). Running buffer used for the lawn immobilization was HBS-EPC (10 mM HEPES, 150 mM NaCl, 3 mM EDTA, 0.05% Tween 20, pH 7.4; Teknova).
(§4) The sensor chip was then transferred to a continuous flow microspotter (CFM; Carterra Inc.) for array capturing. The mAb supernatants were diluted 50-fold ([…] final concentration) into HBS-EPC with 1 mg/mL BSA. The samples were each captured twice with 15-minute and 4-minute capture steps on the first and second prints, respectively, to create multiple densities, using a […] flow rate. The running buffer in the CFM was also HBS-EPC.
(§5) Next, the sensor chip was loaded onto an SPR reader (MX-96 system; Ibis Technologies) for the kinetic analysis. […] PD-1 injections were 5 minutes with a 15-minute dissociation at […] in a non-regenerative kinetic series. An injection of the goat anti-Human IgG Fc capture antibody at […] was injected at the end of the series to verify the capture level of each mAb. Binding data was double referenced by subtracting an interspot surface and a blank injection and analyzed for ka (on-rate), kd (off-rate), and KD (affinity) using the Kinetic Interaction Tool software (Carterra Inc.).

Row | Kd | koff | kon | Binder
13 | 160 nM | 0.002 s⁻¹ | 12000 M⁻¹ s⁻¹ | B11
14 | 410 nM | 0.035 s⁻¹ | 84000 M⁻¹ s⁻¹ | B12
15 | 35 nM | 0.00023 s⁻¹ | 6400 M⁻¹ s⁻¹ | B2
16 | 10 nM | 6.9e-05 s⁻¹ | 6600 M⁻¹ s⁻¹ | B3
17 | 20 nM | 0.00025 s⁻¹ | 12000 M⁻¹ s⁻¹ | B4
18 | 3.7 nM | 2.6e-05 s⁻¹ | 7000 M⁻¹ s⁻¹ | B6
19 | 130 nM | 0.011 s⁻¹ | 80000 M⁻¹ s⁻¹ | B13
20 | 70 nM | 0.00086 s⁻¹ | 12000 M⁻¹ s⁻¹ | B7
21 | 230 nM | 0.0024 s⁻¹ | 10000 M⁻¹ s⁻¹ | B8
22 | 24 nM | 0.00079 s⁻¹ | 32000 M⁻¹ s⁻¹ | B9

What follows are binders tested against T2, Cyno PD-1 (cyno) (assay: BLI, mAb on AHC biosensor, cyno PD-1 as analyte).
T2 construct: also called cynomolgus PD-1
Protocol: as §1, §2

Row | Kd | Binder
23 | 14 nM | B14
24 | 447 nM | B12
25 | 12 nM | B3
26 | 0.1 nM | B4
27 | 26 nM | B7
28 | 42 nM | B9

The binders below were run against T1, human PD-1 (soluble PD-1 protein, R&D …) (assay: BLI (ForteBio), mAb on AHC biosensor, PD-1 as analyte).
Protocol: as §2

Row | Kd | koff | kon | Binder
29 | 13.8 nM | 0.000972 s⁻¹ | 70400 M⁻¹ s⁻¹ | B1
30 | 23.8 nM | 0.00418 s⁻¹ | 176000 M⁻¹ s⁻¹ | B10

Each binder was assayed against T1, human PD-1 (soluble PD-1 protein, R&D …) (assay: array SPR, mAb captured on anti-human IgG Fc, PD-1 as analyte).
Protocol: as §3, §4, §5

Row | Kd | Binder | binding result
31 | 160 nM | B11 | 
32 | 410 nM | B12 | 
33 | 35 nM | B2 | 
34 | 10 nM | B3 | 
35 | 20 nM | B4 | 
36 |  | B5 | no binding (tested: PD-1 injected up to 500 nM)
37 | 3.7 nM | B6 | 
38 | 130 nM | B13 | 
39 | 70 nM | B7 | 
40 | 230 nM | B8 | 
41 | 24 nM | B9 | 
